For 7 substances, Kd results are on record in PMC12373997.

pKd: −log10 of the molar value.

In general, pKd refers to the negative decadic logarithm of the Kd, by convention in mol/L.

X. laevis augmin N-clamp, wild type (HAUS2, HAUS6, HAUS7-EGFP-HIS8, HAUS8-HIS8), sequence (Q0IHJ3 whole entry, looked up, one chain of several): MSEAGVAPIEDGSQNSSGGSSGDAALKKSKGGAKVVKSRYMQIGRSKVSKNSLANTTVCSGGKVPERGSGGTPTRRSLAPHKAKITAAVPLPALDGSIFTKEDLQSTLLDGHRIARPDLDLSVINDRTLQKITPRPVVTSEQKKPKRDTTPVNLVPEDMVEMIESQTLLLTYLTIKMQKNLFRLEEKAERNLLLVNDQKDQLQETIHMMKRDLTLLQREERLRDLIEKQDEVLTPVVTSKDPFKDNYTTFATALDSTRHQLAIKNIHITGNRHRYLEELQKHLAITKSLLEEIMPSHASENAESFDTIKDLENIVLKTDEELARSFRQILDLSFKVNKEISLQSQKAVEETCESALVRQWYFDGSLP
X. laevis augmin N-clamp with HAUS8 lacking its N-terminal extension, sequence (Q0IHJ3 whole entry, looked up, one chain of several): as above
A. thaliana augmin N-clamp with AUG8 lacking its N-terminal extension, sequence (O48767 whole entry): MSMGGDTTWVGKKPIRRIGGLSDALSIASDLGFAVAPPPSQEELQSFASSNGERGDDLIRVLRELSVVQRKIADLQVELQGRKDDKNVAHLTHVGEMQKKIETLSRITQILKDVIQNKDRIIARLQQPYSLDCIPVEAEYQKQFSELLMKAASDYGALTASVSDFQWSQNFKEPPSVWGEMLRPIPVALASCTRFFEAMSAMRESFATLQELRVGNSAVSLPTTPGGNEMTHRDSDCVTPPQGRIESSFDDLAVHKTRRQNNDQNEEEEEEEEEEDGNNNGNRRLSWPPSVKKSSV
A. thaliana augmin N-clamp with AUG8 lacking its N-terminal extension, sequence (Q94BP7 whole entry): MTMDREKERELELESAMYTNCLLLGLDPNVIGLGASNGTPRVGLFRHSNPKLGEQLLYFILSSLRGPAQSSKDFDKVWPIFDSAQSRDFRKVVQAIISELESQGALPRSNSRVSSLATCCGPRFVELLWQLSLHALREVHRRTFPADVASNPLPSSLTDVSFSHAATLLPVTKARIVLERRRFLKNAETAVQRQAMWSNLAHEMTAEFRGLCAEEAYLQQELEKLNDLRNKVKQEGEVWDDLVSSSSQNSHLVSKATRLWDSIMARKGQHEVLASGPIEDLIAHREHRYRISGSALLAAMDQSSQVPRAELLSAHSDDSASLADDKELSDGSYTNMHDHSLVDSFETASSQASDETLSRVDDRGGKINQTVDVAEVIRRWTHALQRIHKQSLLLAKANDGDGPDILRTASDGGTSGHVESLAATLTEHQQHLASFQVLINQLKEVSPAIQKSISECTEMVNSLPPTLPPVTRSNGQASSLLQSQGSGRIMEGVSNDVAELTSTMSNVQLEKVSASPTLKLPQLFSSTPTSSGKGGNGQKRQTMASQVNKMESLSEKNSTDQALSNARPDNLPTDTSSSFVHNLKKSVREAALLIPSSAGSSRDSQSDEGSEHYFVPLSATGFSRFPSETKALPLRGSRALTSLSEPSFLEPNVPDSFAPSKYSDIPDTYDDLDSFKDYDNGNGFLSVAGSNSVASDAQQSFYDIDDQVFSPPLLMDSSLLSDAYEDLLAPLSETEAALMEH
A. thaliana augmin N-clamp with AUG8 lacking its N-terminal extension, sequence (Q0WTP1 whole entry): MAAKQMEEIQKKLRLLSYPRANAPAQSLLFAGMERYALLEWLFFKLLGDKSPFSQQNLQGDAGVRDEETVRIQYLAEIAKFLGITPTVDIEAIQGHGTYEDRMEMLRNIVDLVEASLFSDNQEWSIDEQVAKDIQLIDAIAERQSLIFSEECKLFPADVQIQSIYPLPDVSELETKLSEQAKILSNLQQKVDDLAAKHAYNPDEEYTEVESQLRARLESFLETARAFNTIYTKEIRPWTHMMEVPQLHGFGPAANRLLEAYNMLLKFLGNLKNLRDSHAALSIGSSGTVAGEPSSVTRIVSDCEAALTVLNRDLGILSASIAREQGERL
A. thaliana augmin N-clamp with AUG8 lacking its N-terminal extension, sequence (Q9SUH5 whole entry): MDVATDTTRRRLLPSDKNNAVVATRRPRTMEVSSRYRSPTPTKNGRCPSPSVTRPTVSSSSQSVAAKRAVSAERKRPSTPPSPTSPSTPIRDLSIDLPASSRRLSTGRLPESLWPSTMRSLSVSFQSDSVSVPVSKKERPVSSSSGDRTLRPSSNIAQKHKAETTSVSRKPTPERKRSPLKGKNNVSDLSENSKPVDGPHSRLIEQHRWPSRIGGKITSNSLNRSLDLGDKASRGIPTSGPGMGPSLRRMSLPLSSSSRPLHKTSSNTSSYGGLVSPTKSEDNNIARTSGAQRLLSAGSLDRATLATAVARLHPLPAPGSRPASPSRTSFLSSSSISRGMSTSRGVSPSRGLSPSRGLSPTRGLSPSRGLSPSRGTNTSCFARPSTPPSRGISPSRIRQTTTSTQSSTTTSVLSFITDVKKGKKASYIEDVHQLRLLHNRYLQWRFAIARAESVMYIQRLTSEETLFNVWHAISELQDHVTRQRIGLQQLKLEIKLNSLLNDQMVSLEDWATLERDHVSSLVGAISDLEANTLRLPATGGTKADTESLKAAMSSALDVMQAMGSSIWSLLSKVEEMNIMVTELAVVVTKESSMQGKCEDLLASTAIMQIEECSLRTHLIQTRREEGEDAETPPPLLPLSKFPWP

In the experiment the target is Taxol-stabilized microtubules polymerised from purified porcine brain tubulin (porcine) (UniProt P02550). Briefly: co-sedimentation; tubulin co-sedimentation: taxol-stabilized MTs (varied, α/β-tubulin heterodimer molarity) with 1 µM purified N-clamp, 0.25 mg/ml BSA, BRB80-MT buffer (80 mM PIPES, 1 mM MgCl2, 1 mM EGTA, 12.5% glycerol, pH 6.8), 20 min at room temperature, 200,000 g 10 min 27 °C; SDS-PAGE densitometry of pellet; apparent Kd from a quadratic fit.
Consider “H. sapiens augmin N-clamp, wild type (HAUS2, HAUS6, HAUS7-EGFP-HIS8, HAUS8-HIS8) (from UniProt Q9NVX0 1-235; Q7Z4H7 1-955; Q99871 1-358; Q9BT25 1-410) (complex)”, for which the negative logarithm of the Kd (pKd) is 6.10.
The result for “X. laevis augmin N-clamp with HAUS8 lacking its N-terminal extension (from UniProt Q0IHJ3 1-367; Q0IHJ3 1-367; Q0IHJ3 1-367) (complex)” reads 5.66; that for “A. thaliana augmin N-clamp with AUG8 lacking its N-terminal extension (from UniProt O48767 1-296; Q94BP7 1-741; Q0WTP1 1-329; Q9SUH5 1-644) (complex)”, 5.68; that for “X. laevis augmin N-clamp, wild type (HAUS2, HAUS6, HAUS7-EGFP-HIS8, HAUS8-HIS8) (from UniProt Q0IHJ3 1-367; Q0IHJ3 1-367; Q0IHJ3 1-367) (complex)”, 6.22.
The same measure for “A. thaliana augmin N-clamp, wild type (orthologs of HAUS2, HAUS6, HAUS7-EGFP-HIS8, HAUS8-HIS8) (from UniProt O48767 1-296; Q94BP7 1-741; Q0WTP1 1-329; Q9SUH5 1-644) (complex)”: 8.00; for “GST-tagged D. melanogaster augmin N-clamp (Msd1, Dgt6, Msd5-EGFP-GST, Dgt4-HIS8) (from UniProt Q9W0G7 1-138; Q9VAP2 1-654; Q9W4M8 1-188) (complex)”: 7.40; for “H. sapiens augmin N-clamp with HAUS6^4A-mut (K84A, R90A, K91A, K98A) (from UniProt Q9NVX0 1-235; Q7Z4H7 1-955; Q99871 1-358; Q9BT25 1-410) (complex)”: 5.25.
